Results reported in patent US9151744B2, “Lung tissue model” (Pécsi Tudományegyetem, priority 2009, dated 2015).

Key:
[1] = system: SAEC-NHLF lung micro-tissue; assay: Wnt11 treatment of 3D SAEC-NHLF lung micro-tissue: marker expression (qRT-PCR, PCR, immunofluorescence); type: cell-based, human; conditions: for AQP3 expression / E-cadherin expression / N-cadherin expression (EMT marker) / S100A4 expression (EMT marker) / SLUG expression (EMT marker): 3D cultures, Wnt11 SN vs control SN, mRNA in sorted lung epithelium; for pro-SFTPC protein expression: immunofluorescence, 3D micro-tissue, 72 hours, vs control SN
Procedure: (§1) Primary SAEC, NHLF and pulmonary HMVEC cells were purchased from Lonza. All cell types were isolated from the lungs of multiple random donors of different sexes and ages. We used SAGM, FGM or EGM-2 medium for the initial expansion of SAEC, NHLF or pulmonary HMVEC, respectively, as recommended by the manufacturer. All types of cell cultures were incubated in an atmosphere containing 5% CO2, at 37° C. For 2D and 3D culturing, pure or mixed cell populations were cultured in a 50-50% mixture of SAGM (Small Airway Growth Medium, Lonza) and complete DMEM. For two and three-cell cultures containing HMVEC cells, the appropriate growth factor supplements for HMVEC cells were added to the 50-50% mixture of SAGM and DMEM. The compositions of cell culture media were prepared in accordance with instructions of the manufacturer. For 2D and 3D culturing, cells were mixed at the indicated ratios and dispensed onto flat-bottom 6 well plates or 96-well V-bottom plates (Sarstedt), respectively. V-bottom plates were immediately centrifuged after cell seeding at 600×g for 10 minutes at room temperature.
SAEC and NHLF were stained with CFSE and DiI according to manufacturers instructions (Molecular probes). Cells were mixed and cultured for 72 hours in 2D and 3D systems. Stained cells were dissociated by mild trypsin treatment followed by PBS+EDTA treatment. Dissociated cells were sorted using a BD FACSVantage cell sorter into tubes with lysis buffer for mRNA preparation (Miltenyi Biotech).
After culturing cells in 3D for 3 days, micro-tissues were carefully removed from the V-bottom plates and fixed in 4% formaline for 10 minutes at room temperature. Fixed samples were covered with TissueTech cryostate embedding medium and 8 μm thick frozen sections were made. Sections were permeabilized in PBS buffer containing 0.1% saponine and 5% BSA for 30 minutes. Primary and secondary antibodies were diluted in the same buffer and incubated with the samples for 1-1 hour. Fluorescent images were acquired using an Olympus IX-81 fluorescent microscope. To ensure the comparability of expression levels of SFTPC, AQP3 and N-cad in Wnt11-SN— or Wnt11 siRNA-treated samples to their matched untreated controls, all images were captured with the same exposition settings.
Retroviral infection. Retroviral supernatants were generated from retroviral vectors containing Wnt11-GFP, or green fluorescence protein (GFP) only, in 293 cells. Epithelial cell line A549 was transformed using the above viruses in 24-well-plates, in 250 μl of viral supernatant and 50 μl of DMEM polybrene mix (final conc.: 8 μg/ml)/well, and then centrifuged for 60 min at 2100 rpm at room temperature. The cells were incubated for 3 days in fresh DMEM containing 10% FCS, then sorted based on GFP expression using FACSVantage cell sorter (BD Biosciences). GFP positive cells were then cultured as described above. The presence of Wnt11 protein were verified by immunoblotting and immunofluorescence using Wnt11 specific polyclonal antibody (AbCam) (FIG. 7).
All samples were set up in duplicates. Briefly, Ct values were determined for each sample using an automatic threshold level determined by the 7500 System SDS Software. Delta Ct (dCt) values were determined according to the following formula: dCt(target gene)=Ct(target gene)−Ct(housekeeping gene). Changes in gene expression are shown as RQ values calculated using the next formula: RQ=2^−ddCt, where ddCt values were calculated as ddCt=dCt(sample)−dCt(reference sample).

[2] = system: SAEC-NHLF lung micro-tissue; assay: Wnt11 SN treatment of 3D lung micro-tissue: haematoxilin-eosin morphology; type: cell-based, human; conditions: 3D micro-tissue, 72 hours, vs control A549 SN
Procedure: as §1
Retroviral infection. Retroviral supernatants were generated from retroviral vectors containing Wnt11-GFP, or green fluorescence protein (GFP) only, in 293 cells. […]

B1: Wnt11: Wnt11 protein, applied as supernatant (SN) of A549 cells transfected with lentiviral full-length Wnt11-IRES-GFP construct (protein, UniProt O96014 1-354, looked up)
chain: MRARPQVCEALLFALALQTGVCYGIKWLALSKTPSALALNQTQHCKQLEGLVSAQVQLCRSNLELMHTVVHAAREVMKACRRAFADMRWNCSSIELAPNYLLDLERGTRESAFVYALSAAAISHAIARACTSGDLPGCSCGPVPGEPPGPGNRWGGCADNLSYGLLMGAKFSDAPMKVKKTGSQANKLMRLHNSEVGRQALRASLEMKCKCHGVSGSCSIRTCWKGLQELQDVAADLKTRYLSATKVVHRPMGTRKHLVPKDLDIRPVKDSELVYLQSSPDFCMKNEKVGSHGTQDRQCNKTSNGSDSCDLMCCGRGYNPYTDRVVERCHCKYHWCCYVTCRRCERTVERYVCK
modifications: full-length
notes: Wnt11 protein, applied as supernatant (SN) of A549 cells transfected with lentiviral full-length Wnt11-IRES-GFP construct
B1 was tested, and the AQP3 expression [1] was “up-regulation”, the E-cadherin expression [1] was “up-regulation” and the “N-cadherin expression (EMT marker)” value [1] was “down-regulation”. For the same molecule, the “S100A4 expression (EMT marker)” value [1] was “down-regulation”, the “SLUG expression (EMT marker)” value [1] was “down-regulation” and the AQP3 expression ([1]; listed as Wnt11 SN) was “increased”. For the same molecule, the E-cadherin expression ([1]; listed as Wnt11 SN) was “increased”, the “N-cadherin expression (EMT marker)” value ([1]; listed as Wnt11 SN) was “decreased” and the “S100A4 expression (EMT marker)” value ([1]; listed as Wnt11 SN) was “decreased”. The “SLUG expression (EMT marker)” value ([1]; listed as Wnt11 SN) was “decreased”, the “SFTPA mRNA levels” value ([1]; PCR, Wnt11 treated cultures vs untreated control) was “significant increase” and the “surfactant expression (ATII type differentiation of alveolar epithelium)” value ([1]; all studied culture conditions, in the presence of fibroblasts) was “drastic boost”. For the same molecule, the pro-SFTPC protein expression [1] was “radical increase”, the pro-SFTPC protein expression ([1]; listed as Wnt11 SN) was “dramatic increase” and the “epithelial cell morphology (HE staining)” value [2] was “increased number of cells with cuboid-like morphology”.
